Laboratory results: US10253082B2, “Long-acting insulin and use thereof” (HANMI PHARM. CO., LTD., priority 2014, dated 2019)

Biological target: Insulin receptors (Homo sapiens, UniProt P06213)
Assay: Insulin receptor binding affinity by surface plasmon resonance (BIACORE 3000)
Conditions: for ka / kd: SPR, immobilized insulin receptor, 1:1 Langmuir binding with baseline drift, Test 1-5 runs; for receptor binding affinity (KD) compared to human insulin: native human insulin of the same test = 100%
Protocol: Then, the insulin receptor binding affinity of each substance was examined. The binding affinity of each substance was calculated using BIAevaluation software. At this time, the model used was 1:1 Langmuir binding with baseline drift.

Substance	ka	kd	receptor binding affinity (KD) compared to human insulin
Insulin analog (No. 6): insulin analog, modified sequence B^24F->A; protein SEQ ID NO: 30	0.28 1/Ms, ×10^5	6.60 1/s, ×10^−3	(14.8%)
Insulin analog (No. 7): insulin analog, modified sequence B^25F->A; protein SEQ ID NO: 32	0.14 1/Ms, ×10^5	8.34 1/s, ×10^−3	(9.9%)
Insulin analog (No. 9): insulin analog, modified sequence A^14Y->N; protein SEQ ID NO: 36	1.85 1/Ms, ×10^5	11.9 1/s, ×10^−3	(78.8%)
Insulin analog (No. 8): insulin analog, modified sequence A^14Y->E; protein SEQ ID NO: 34	1.78 1/Ms, ×10^5	12.9 1/s, ×10^−3	(57.1%)
